Test results published in PMC2814526 (Journal of immunology (Baltimore, Md. : 1950), 2009).

Experiments:
[1] = target: mouse IL-15 receptor complex (mIL-15Rα-mIL-15Rβ-mγc) on CTLL-2 cells (mouse) (UniProt Q60819)
[2] = target: hIL-15Rβ-mγc on 32Dβ cells (human | mouse (endogenous in 32D)) (UniProt P14784)
[3] = target: hIL-15Rβ-mγc on 32Dβ cells (human | mouse (endogenous in 32D)) (UniProt P14784); remark: listed apart in the source
[4] = target: hIL-15Rα and hγc on TF-1 cells (human (endogenous in TF-1)) (UniProt Q13261); assay: flow cytometry on cells
[5] = target: hIL-15Rα-hIL-15Rβ-hγc complex on TF-1β cells (human (endogenous in TF-1) | human) (UniProt Q13261)
[6] = target: hIL-15Rβ-mγc on 32Dβ cells (human | mouse (endogenous in 32D)) (UniProt P14784); remark: listed apart in the source
[7] = target: recombinant human IL-15 (human, UniProt P40933 49-162); assay: ELISA
[8] = target: c264scTCR/hIL-15 fusion protein (human, UniProt P40933 49-162); assay: ELISA

hIL-15Rβ-mγc on 32Dβ cells (human | mouse (endogenous in 32D)), sequence (P14784 27-551, chain 1 of 2): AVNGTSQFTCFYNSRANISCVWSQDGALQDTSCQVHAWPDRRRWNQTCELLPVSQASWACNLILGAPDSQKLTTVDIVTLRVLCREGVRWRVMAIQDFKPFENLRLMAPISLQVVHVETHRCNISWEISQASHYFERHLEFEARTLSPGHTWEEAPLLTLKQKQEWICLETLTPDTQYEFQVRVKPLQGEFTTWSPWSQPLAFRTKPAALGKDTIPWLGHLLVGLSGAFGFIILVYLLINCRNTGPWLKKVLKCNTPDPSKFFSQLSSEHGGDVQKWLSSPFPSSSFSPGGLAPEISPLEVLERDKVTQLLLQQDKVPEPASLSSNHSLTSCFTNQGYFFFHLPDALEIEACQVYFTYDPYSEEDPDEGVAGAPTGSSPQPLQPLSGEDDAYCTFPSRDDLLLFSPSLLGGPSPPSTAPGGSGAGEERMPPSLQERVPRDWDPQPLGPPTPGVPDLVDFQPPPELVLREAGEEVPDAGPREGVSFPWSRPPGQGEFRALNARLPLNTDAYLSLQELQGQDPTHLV
hIL-15Rβ-mγc on 32Dβ cells (human | mouse (endogenous in 32D)), sequence (P34902 23-369, chain 2 of 2, further chain): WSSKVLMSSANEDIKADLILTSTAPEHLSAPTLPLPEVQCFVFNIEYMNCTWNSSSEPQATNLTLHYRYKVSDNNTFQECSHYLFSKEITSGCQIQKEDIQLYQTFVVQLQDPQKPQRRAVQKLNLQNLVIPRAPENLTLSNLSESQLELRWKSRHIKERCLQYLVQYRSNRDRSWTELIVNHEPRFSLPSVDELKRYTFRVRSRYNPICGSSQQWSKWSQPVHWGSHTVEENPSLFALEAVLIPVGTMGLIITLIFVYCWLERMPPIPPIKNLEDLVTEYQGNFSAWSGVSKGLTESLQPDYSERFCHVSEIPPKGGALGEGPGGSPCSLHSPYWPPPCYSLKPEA
mouse IL-15 receptor complex (mIL-15Rα-mIL-15Rβ-mγc) on CTLL-2 cells (mouse), sequence (Q60819 33-263, chain 1 of 3): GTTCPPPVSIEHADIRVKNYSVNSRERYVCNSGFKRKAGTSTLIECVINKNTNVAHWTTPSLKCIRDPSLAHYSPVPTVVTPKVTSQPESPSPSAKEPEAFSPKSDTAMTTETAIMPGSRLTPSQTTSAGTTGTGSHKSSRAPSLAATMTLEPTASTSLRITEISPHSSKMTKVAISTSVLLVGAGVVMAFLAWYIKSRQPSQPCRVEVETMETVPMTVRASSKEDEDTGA
mouse IL-15 receptor complex (mIL-15Rα-mIL-15Rβ-mγc) on CTLL-2 cells (mouse), sequence (P16297 27-539, chain 2 of 3, further chain): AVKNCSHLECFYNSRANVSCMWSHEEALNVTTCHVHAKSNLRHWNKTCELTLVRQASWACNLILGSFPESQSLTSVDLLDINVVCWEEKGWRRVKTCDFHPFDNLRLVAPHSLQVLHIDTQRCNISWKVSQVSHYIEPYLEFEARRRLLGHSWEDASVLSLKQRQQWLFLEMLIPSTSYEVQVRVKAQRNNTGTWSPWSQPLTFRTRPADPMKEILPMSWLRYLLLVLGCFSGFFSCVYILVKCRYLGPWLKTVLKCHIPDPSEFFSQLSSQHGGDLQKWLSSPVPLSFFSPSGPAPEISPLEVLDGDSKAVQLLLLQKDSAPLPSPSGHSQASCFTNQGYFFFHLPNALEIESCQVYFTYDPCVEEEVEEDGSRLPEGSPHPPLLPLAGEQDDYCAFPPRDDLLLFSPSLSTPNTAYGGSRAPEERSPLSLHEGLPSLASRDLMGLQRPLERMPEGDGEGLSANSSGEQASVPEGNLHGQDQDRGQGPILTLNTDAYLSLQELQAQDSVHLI
mouse IL-15 receptor complex (mIL-15Rα-mIL-15Rβ-mγc) on CTLL-2 cells (mouse), sequence (P34902 23-369, chain 3 of 3, further chain): as the sequence (P34902 23-369, chain 2 of 2, further chain) above

| EC50 of CTLL-2 cell proliferation (WST-1, 48 h) [1] | EC50 of 32Dβ cell proliferation (WST-1, 48 h) [2] | EC50 on 32Dβ cell proliferation, rhIL-15N72D alone [3] | IC50 [4] | EC50 of TF-1β cell proliferation (WST-1, 48 h) [5] | EC50 of the decrease in apoptosis of 32Dβ cells (Annexin V, 48 h) [6] | binding result [7] | binding result [8] | Molecule |
| --- | --- | --- | --- | --- | --- | --- | --- | --- |
| 0.0184 nM | 0.079 nM | – | – | – | – | – | – | c264scTCR/hIL-15N72D fusion protein (ligand) |
| 0.0092 nM | 0.0399 nM | 0.0162 nM | 0.0175 nM | 0.0048 nM | 0.0078 nM | – | – | recombinant human IL-15 N72D mutein (ligand) |
| – | – | – | – | – | – | binds | binds | c264scTCR/hIL-15RαSu fusion protein (domain or fragment, human, UniProt Q13261 31-95, looked up) ITCPPPMSVEHADIWVKSYSLYSRERYICNSGFKRKAGTSSLTECVLNKATNVAHWTTPSLKCIR |
